Results as given in US20220289820.

Tested on: D11-CD8stk-IL2Rg_A5-Hinge-IL2Rb
Sequence (chain, as listed by the source, chain 1 of 2): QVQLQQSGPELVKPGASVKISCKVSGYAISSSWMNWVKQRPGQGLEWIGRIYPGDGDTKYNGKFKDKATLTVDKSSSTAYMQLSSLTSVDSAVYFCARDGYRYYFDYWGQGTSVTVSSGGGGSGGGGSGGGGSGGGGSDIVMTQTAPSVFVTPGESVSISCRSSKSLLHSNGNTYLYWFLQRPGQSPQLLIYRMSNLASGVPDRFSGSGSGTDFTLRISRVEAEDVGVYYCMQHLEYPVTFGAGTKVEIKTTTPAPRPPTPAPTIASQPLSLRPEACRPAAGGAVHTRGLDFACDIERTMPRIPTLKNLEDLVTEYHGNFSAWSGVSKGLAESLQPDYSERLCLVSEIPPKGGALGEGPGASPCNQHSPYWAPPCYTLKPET
Sequence (chain, as listed by the source, chain 2 of 2): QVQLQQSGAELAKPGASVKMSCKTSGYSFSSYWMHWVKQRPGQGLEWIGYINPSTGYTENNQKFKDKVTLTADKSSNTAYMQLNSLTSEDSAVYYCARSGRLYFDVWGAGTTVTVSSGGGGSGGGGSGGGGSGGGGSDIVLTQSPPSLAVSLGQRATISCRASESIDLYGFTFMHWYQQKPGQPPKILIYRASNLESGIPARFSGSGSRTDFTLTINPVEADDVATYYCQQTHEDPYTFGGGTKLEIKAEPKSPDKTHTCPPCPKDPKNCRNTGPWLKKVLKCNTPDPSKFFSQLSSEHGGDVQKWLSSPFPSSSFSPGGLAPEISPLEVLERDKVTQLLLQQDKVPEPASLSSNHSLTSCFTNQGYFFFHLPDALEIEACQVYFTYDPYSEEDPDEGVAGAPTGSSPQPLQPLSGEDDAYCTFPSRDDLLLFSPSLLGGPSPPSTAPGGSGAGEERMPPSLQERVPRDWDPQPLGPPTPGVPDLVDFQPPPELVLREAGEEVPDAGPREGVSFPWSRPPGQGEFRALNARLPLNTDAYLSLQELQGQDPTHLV

prostate-specific antigen (PSA)
phosphorylation of Y694 of STAT5 (phosphoflow): In the cells expressing the PSA CCR, the presence of PSA lead to increasing STAT5 phosphorylation with time
